Assay results: patent US20220226454A1 (KEYSTONE BIO, published 2022)

Experiments:
[1] = target: whole bacterial cells of P. gingivalis (Porphyromonas gingivalis)
[2] = target: T1, recombinant GST-gingipain rGP-1 fusion protein; assay: ELISA, wells coated with rGP-1 and probed with varying concentrations of KB001
T1 construct: also called GST-Gp; GST-Gingipain recombinant protein

B1: KB-001 mouse monoclonal antibody (antibody, V domains shown)
VH: EVQLKQSGPGLVAPSQSLSITCTVSGFSLSIYSVHWVRQPPGKGLEWLGMIWGGGSSDYNSALKSRLSISKDNSKSQVFLKMNSLQTDDTAMYYCARNGNFYAMDYWGQGTSVTVSS
VL: QIVLTQSPAIMSASLGERVTMTCTASSSVSSSFLHWYQQKPGSSPQLWIYSTSNLASGVPARFSGSGSGTSYSLTISSMEAEDAATYYCHQYHHSPYIYTFGGGTKLEIKR
notes: also called Pg/gingipain antibody
[1]
  Kd: 11.4 nM
[2]
  binding result: binds
